Results: patent US20220154296A1, “USE OF ANTI-PD-1 ANTIBODY IN PREPARATION OF MEDICAMENT FOR TREATING SOLID TUMORS” (Shanghai Junshi Biosciences Co., Ltd., priority 2019, published 2022)

Key:
[1] = tested on: CT-26 cells; assay: Inhibitory effect on tumor growth in CT-26 cell-transplanted B-hPD-1 mice; type: in vivo
Method: CT-26 cells were seeded subcutaneously on the right side of hPD-1 humanized female mice at a concentration of 2.5×10^5 cells/0.1 mL, and the mice were randomly grouped by tumor volume when tumors grew to about 93 mm^3 with 7 mice per group, for a total of 4 groups:
G1: Anti-KLH hIgG4 (1 mg/kg) negative control group;
G3: palbociclib (100 mg/kg);
The experiment was ended 11 days after the first administration. Tumor volume and body weight of mice were measured and recorded twice a week. At the end of the experiment, animals were euthanized and tumor growth inhibition (TGITv%) was calculated.

[2] = ESCC patients, 3 mg/kg Q2W, n = 59

toripalimab: humanized IgG4 anti-PD-1 mAb comprising light and heavy chain amino acid sequences set forth in SEQ ID NOs: 9 and 10 (WO2014206107)
TGI (%) ([1]; 11 days after the first administration, toripalimab 1 mg/kg i.p., palbociclib 100 mg/kg orally): 8.0%
Tumor volume 11 days after the first administration ([1]; mean ± standard error, toripalimab 1 mg/kg i.p. twice a week, palbociclib 100 mg/kg orally once a day, 7 mice per group): 2519 ± 320 mm^3
Common TRAE: ALT elevation (59 ESCC patients): 11.9%
Common TRAE: AST elevation (59 ESCC patients): 13.6%
Common TRAE: anemia (59 ESCC patients): 18.6%
Common TRAE: constipation (59 ESCC patients): 10.2%
Common TRAE: cough (59 ESCC patients): 16.9%
Common TRAE: fatigue (59 ESCC patients): 11.9%
Common TRAE: fever (59 ESCC patients): 16.9%
Common TRAE: hypothyroidism (59 ESCC patients): 13.6%
Common TRAE: leukopenia (59 ESCC patients): 15.3%
Common TRAE: loss of appetite (59 ESCC patients): 18.6%
Common TRAE: low hemoglobin counts (59 ESCC patients): 10.2%
Common TRAE: nausea (59 ESCC patients): 11.9%
Common TRAE: total bilirubin increase (59 ESCC patients): 10.2%
Common TRAE: weight loss (59 ESCC patients): 18.6%
Grade 3 TRAE: anemia (59 ESCC patients): 2 cases
Grade 3 TRAE: anorexia (59 ESCC patients): 1 case
Grade 3 TRAE: dysphagia (59 ESCC patients): 1 case
Grade 3 TRAE: esophageal stenosis (59 ESCC patients): 1 case
Grade 3 TRAE: fatigue (59 ESCC patients): 1 case
Grade 3 TRAE: hydrocardia (59 ESCC patients): 1 case
Grade 3 TRAE: hypercalcemia (59 ESCC patients): 1 case
Grade 3 TRAE: hypertension (59 ESCC patients): 1 case
Grade 3 TRAE: hyponatremia (59 ESCC patients): 2 cases
Grade 3 TRAE: leukopenia (59 ESCC patients): 1 case
Grade 3 TRAE: neck infection (59 ESCC patients): 1 case
Grade 3 TRAE: upper respiratory infection (59 ESCC patients): 1 case
Grade 4 TRAE: hyperuricemia (59 ESCC patients): 1 case
Grade 4 TRAE: paraplegia (59 ESCC patients): 1 case
Patients permanently discontinued due to TRAE (59 ESCC patients): 23.7%
Patients with Grade 3 and higher TRAEs (59 ESCC patients): 32.2%
Patients with Grade 4 TRAEs (59 ESCC patients): 3.4%
Patients with dose discontinuation due to TRAE (59 ESCC patients): 10.2%
Patients with grade 3 TRAEs (59 ESCC patients): 18.6%
Safety in ESCC patients (conclusion) (59 ESCC patients): controlled safety
Treatment-related death: cachexia (59 ESCC patients): 1 case
Treatment-related death: pneumonia (59 ESCC patients): 2 cases
Treatment-related death: unknown etiology (59 ESCC patients): 3 cases
Patients with treatment-related adverse events (TRAEs) (59 ESCC patients, as of Dec. 31, 2018): 94.9%
Treatment-related deaths (59 ESCC patients, likely unrelated to the treatment): six
ALT elevation, Level 1 [2]: 7 (11.9) n (%)
ALT elevation, Level 2 [2]: 0 n (%)
ALT elevation, Level 3 [2]: 0 n (%)
ALT elevation, Level 4 [2]: 0 n (%)
ALT elevation, Level 5 [2]: 0 n (%)
ALT elevation, Total [2]: 7 (11.9) n (%)
AST elevation, Level 1 [2]: 8 (13.6) n (%)
AST elevation, Level 2 [2]: 0 n (%)
AST elevation, Level 3 [2]: 0 n (%)
AST elevation, Level 4 [2]: 0 n (%)
AST elevation, Level 5 [2]: 0 n (%)
AST elevation, Total [2]: 8 (13.6) n (%)
Anemia, Level 1 [2]: 6 (10.2) n (%)
Anemia, Level 2 [2]: 2 (3.4) n (%)
Anemia, Level 3 [2]: 3 (5.1) n (%)
Anemia, Level 4 [2]: 0 n (%)
Anemia, Level 5 [2]: 0 n (%)
Anemia, Total [2]: 11 (18.6) n (%)
Constipation, Level 1 [2]: 5 (8.5) n (%)
Constipation, Level 2 [2]: 1 (1.7) n (%)
Constipation, Level 3 [2]: 0 n (%)
Constipation, Level 4 [2]: 0 n (%)
Constipation, Level 5 [2]: 0 n (%)
Constipation, Total [2]: 6 (10.2) n (%)
Cough, Level 1 [2]: 6 (10.2) n (%)
Cough, Level 2 [2]: 4 (6.8) n (%)
Cough, Level 3 [2]: 0 n (%)
Cough, Level 4 [2]: 0 n (%)
Cough, Level 5 [2]: 0 n (%)
Cough, Total [2]: 10 (16.9) n (%)
Fatigue, Level 1 [2]: 6 (10.2) n (%)
Fatigue, Level 2 [2]: 1 (1.7) n (%)
Fatigue, Level 3 [2]: 0 n (%)
Fatigue, Level 4 [2]: 0 n (%)
Fatigue, Level 5 [2]: 0 n (%)
Fatigue, Total [2]: 7 (11.9) n (%)
Fever, Level 1 [2]: 8 (13.3) n (%)
Fever, Level 2 [2]: 2 (3.4) n (%)
Fever, Level 3 [2]: 0 n (%)
Fever, Level 4 [2]: 0 n (%)
Fever, Level 5 [2]: 0 n (%)
Fever, Total [2]: 10 (16.9) n (%)
Hypothyroidism, Level 1 [2]: 5 (8.5) n (%)
Hypothyroidism, Level 2 [2]: 3 (5.1) n (%)
Hypothyroidism, Level 3 [2]: 0 n (%)
Hypothyroidism, Level 4 [2]: 0 n (%)
Hypothyroidism, Level 5 [2]: 0 n (%)
Hypothyroidism, Total [2]: 8 (13.6) n (%)
Leukopenia, Level 1 [2]: 6 (10.2) n (%)
Leukopenia, Level 2 [2]: 3 (5.1) n (%)
Leukopenia, Level 3 [2]: 0 n (%)
Leukopenia, Level 4 [2]: 0 n (%)
Leukopenia, Level 5 [2]: 0 n (%)
Leukopenia, Total [2]: 9 (15.3) n (%)
Loss of appetite, Level 1 [2]: 6 (10.2) n (%)
Loss of appetite, Level 2 [2]: 4 (6.8) n (%)
Loss of appetite, Level 3 [2]: 1 (1.7) n (%)
Loss of appetite, Level 4 [2]: 0 n (%)
Loss of appetite, Level 5 [2]: 0 n (%)
Loss of appetite, Total [2]: 11 (18.6) n (%)
Low hemoglobin counts, Level 1 [2]: 3 (5.1) n (%)
Low hemoglobin counts, Level 2 [2]: 3 (5.1) n (%)
Low hemoglobin counts, Level 3 [2]: 0 n (%)
Low hemoglobin counts, Level 4 [2]: 0 n (%)
Low hemoglobin counts, Level 5 [2]: 0 n (%)
Low hemoglobin counts, Total [2]: 6 (10.2) n (%)
Nausea, Level 1 [2]: 5 (8.5) n (%)
Nausea, Level 2 [2]: 2 (3.4) n (%)
Nausea, Level 3 [2]: 0 n (%)
Nausea, Level 4 [2]: 0 n (%)
Nausea, Level 5 [2]: 0 n (%)
Nausea, Total [2]: 7 (11.9) n (%)
Total bilirubin increase, Level 1 [2]: 6 (10.2) n (%)
Total bilirubin increase, Level 2 [2]: 0 n (%)
Total bilirubin increase, Level 3 [2]: 0 n (%)
Total bilirubin increase, Level 4 [2]: 0 n (%)
Total bilirubin increase, Level 5 [2]: 0 n (%)
Total bilirubin increase, Total [2]: 6 (10.2) n (%)
Treatment-related adverse events, Level 1 [2]: 13 (22.0) n (%)
Treatment-related adverse events, Level 2 [2]: 24 (40.7) n (%)
Treatment-related adverse events, Level 3 [2]: 11 (18.6) n (%)
Treatment-related adverse events, Level 4 [2]: 2 (3.4) n (%)
Treatment-related adverse events, Level 5 [2]: 6 (10.2) n (%)
Treatment-related adverse events, Total [2]: 56 (94.9) n (%)
Weight loss, Level 1 [2]: 8 (13.6) n (%)
Weight loss, Level 2 [2]: 3 (5.1) n (%)
Weight loss, Level 3 [2]: 0 n (%)
Weight loss, Level 4 [2]: 0 n (%)
Weight loss, Level 5 [2]: 0 n (%)
Weight loss, Total [2]: 11 (18.6) n (%)
